Experimental data from the supplement of paper PMC10567573.

B1: C1orf137 (parent)
chain: RQHHHQSSFPGSLPQETNLTLKVC
B2: RIPK4 (parent)
chain: VSVNAQTLDGRTPLHLAAQRGHYR

Variants of: B1
Test: protein stability index of a GFP-peptide fusion (GPS, HEK-293T) (PSI 1-6); higher = more stable
Details: c terminus: a fixed tail appended
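Further: lentivirally expressed fusions sorted by FACS into six bins by GFP to DsRed ratio, PSI derived from sequencing read proportions per bin multiplied by bin number.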

Row | Variant | protein stability index
1 | RQHHHQSSFPGFLPQETNLTLKVC [S12F] | 2.41
2 | RQHHHQSSFPGKLPQETNLTLKVC [S12K] | 2.98
3 | RQHHHQSSFPGRLPQETNLTLKVC [S12R] | 3.17
4 | RQHHHQSSFPGSLPQEFNLTLKVC [T17F] | 2.49
5 | RQHHHQSSFPGSLPQEENLTLKVC [T17E] | 3.95
6 | RQTHHQSSFPGSLPQETNLTLKVC [H3T] | 3.13
7 | RQGHHQSSFPGSLPQETNLTLKVC [H3G] | 3.11
8 | RQFHHQSSFPGSLPQETNLTLKVC [H3F] | 2.04
9 | RQEHHQSSFPGSLPQETNLTLKVC [H3E] | 3.69
10 | RQHHHQSSFPGSLPQETNFTLKVC [L19F] | 2.47
11 | RQHHHQSSFPGSLPQETNPTLKVC [L19P] | 3.31
12 | RQHHHQSSFPGSLPQETNSTLKVC [L19S] | 3.55
13 | RQHHHQSSFPGSLPQETNTTLKVC [L19T] | 3.96
14 | RQHHHQSSFPGSLPQETNLTLIVC [K22I] | 2.49
15 | RQHHHQSSFPGSLPQETNLTLPVC [K22P] | 3.53
16 | RQHHHQSSFPGSLPQETNLTLDVC [K22D] | 3.5
17 | RQHHHQSSFPYSLPQETNLTLKVC [G11Y] | 1.95
18 | RQHHHQSSFPWSLPQETNLTLKVC [G11W] | 2.24
19 | RQHHHQSSFPLSLPQETNLTLKVC [G11L] | 2.72
20 | RQHHHQSSFPQSLPQETNLTLKVC [G11Q] | 3.07
21 | RCHHHQSSFPGSLPQETNLTLKVC [Q2C] | 2.04
22 | RDHHHQSSFPGSLPQETNLTLKVC [Q2D] | 3.06
23 | RLHHHQSSFPGSLPQETNLTLKVC [Q2L] | 2.4
24 | RQHHHQSSFPGSLPQETNLTLKQC [V23Q] | 4.5
25 | RQHHHQSSFPGSLPQETNLTLKDC [V23D] | 4.72
26 | RQHHHQSSFPGSLPQETNLTLKIC [V23I] | 2.46
27 | RQHHHQSSFPGSLPQETNLTLKFC [V23F] | 2.5

Row | Variant | protein stability index
28 | RQHHHQSSFPGSKPQETNLTLKVC [L13K] | 3.16
29 | RQHHHQSSSPGSLPQETNLTLKVC [F9S] | 3.16
30 | RQHHHQSSNPGSLPQETNLTLKVC [F9N] | 3.88
31 | RQHHHQSSRPGSLPQETNLTLKVC [F9R] | 3.7
32 | RQHHHQSSYPGSLPQETNLTLKVC [F9Y] | 3.41
33 | RQHHHQSSFPGSLPQETNLTLKVE [C24E] | 4.19
34 | RQHHHQSSFPGSLPQETNLTLKVV [C24V] | 2.29
35 | RQHHHQSSFPGSLPQETNLTLKVM [C24M] | 2.44
36 | RQHHHQSSFPGSLPQETNLTLKVS [C24S] | 3.41
37 | KQHHHQSSFPGSLPQETNLTLKVC [R1K] | 2.88
38 | LQHHHQSSFPGSLPQETNLTLKVC [R1L] | 2.44
39 | SQHHHQSSFPGSLPQETNLTLKVC [R1S] | 3.4
40 | RQHHHYSSFPGSLPQETNLTLKVC [Q6Y] | 2.9
41 | RQHHHTSSFPGSLPQETNLTLKVC [Q6T] | 2.49
42 | RQHHHVSSFPGSLPQETNLTLKVC [Q6V] | 2.89
43 | RQHHHMSSFPGSLPQETNLTLKVC [Q6M] | 2.23
44 | RQHHHASSFPGSLPQETNLTLKVC [Q6A] | 2.61
45 | RQHHHQSSFPGSLDQETNLTLKVC [P14D] | 3.55
46 | RQHHHQSSFPGSLNQETNLTLKVC [P14N] | 2.54
47 | RQHHHQSSFPGSLFQETNLTLKVC [P14F] | 2
48 | RQHHHQSSFPGSLQQETNLTLKVC [P14Q] | 3.44
49 | RQHHHQSSFPGSLAQETNLTLKVC [P14A] | 3.15
50 | RQHHHQSSFPGSLPQETMLTLKVC [N18M] | 2.51
51 | RQHVHQSSFPGSLPQETNLTLKVC [H4V] | 2.82
52 | RQHPHQSSFPGSLPQETNLTLKVC [H4P] | 3.19
53 | RQHGHQSSFPGSLPQETNLTLKVC [H4G] | 3.52
54 | RQHKHQSSFPGSLPQETNLTLKVC [H4K] | 3.26

Row | Variant | protein stability index
55 | RQHLHQSSFPGSLPQETNLTLKVC [H4L] | 3.13
56 | RQHHHQSSFHGSLPQETNLTLKVC [P10H] | 2.77
57 | RQHHHQSSFLGSLPQETNLTLKVC [P10L] | 2.25
58 | RQHHHQSSFWGSLPQETNLTLKVC [P10W] | 1.99
59 | RQHHHQSSFYGSLPQETNLTLKVC [P10Y] | 2.4
60 | RQHHHQSSFFGSLPQETNLTLKVC [P10F] | 2.27
61 | RQHHHQSSFEGSLPQETNLTLKVC [P10E] | 2.6
62 | RQHHHQSSFPGSLPAETNLTLKVC [Q15A] | 2.03
63 | RQHHHQSSFPGSLPHETNLTLKVC [Q15H] | 2.51
64 | RQHHHQSSFPGSLPMETNLTLKVC [Q15M] | 2.29
65 | RQHHHQSSFPGSLPLETNLTLKVC [Q15L] | 2.19
66 | RQHHHQSSFPGSLPIETNLTLKVC [Q15I] | 2.53
67 | RQHHHQSFFPGSLPQETNLTLKVC [S8F] | 1.84
68 | RQHHHQSEFPGSLPQETNLTLKVC [S8E] | 3.85
69 | RQHHHQSVFPGSLPQETNLTLKVC [S8V] | 2.78
70 | RQHHHQSWFPGSLPQETNLTLKVC [S8W] | 2
71 | RQHHHQSSFPGSLPQETNLDLKVC [T20D] | 4.1
72 | RQHHHQSSFPGSLPQETNLRLKVC [T20R] | 3.36
73 | RQHHVQSSFPGSLPQETNLTLKVC [H5V] | 3.23
74 | RQHHFQSSFPGSLPQETNLTLKVC [H5F] | 2.33
75 | RQHHIQSSFPGSLPQETNLTLKVC [H5I] | 2.66
76 | RQHHQQSSFPGSLPQETNLTLKVC [H5Q] | 2.65
77 | RQHHHQESFPGSLPQETNLTLKVC [S7E] | 2.3
78 | RQHHHQMSFPGSLPQETNLTLKVC [S7M] | 2.43
79 | RQHHHQHSFPGSLPQETNLTLKVC [S7H] | 2.83

Variants of: B2
Test: as above
Details: c terminus: a fixed tail appended

Row | Variant | protein stability index
80 | VSVNAQTLDGRTPLHLAAQRGHYP [R24P] | 3.08
81 | VSVNAQTLDGRTPLHLAAQRGHYS [R24S] | 3.01
82 | VSVNAQTLDGRTPLHLAAQRGHYQ [R24Q] | 2.82
83 | VSVNAQTLDGRTPLHLAAQRGHYV [R24V] | 2.43
84 | VSVNAQTLDGRTPLHLAAQRGHYY [R24Y] | 2.66
85 | VSVNAQTLDGRTPLHLAAQRGHYH [R24H] | 2.69
86 | VSVNAQTLDGRTPLHLAAQRGHYF [R24F] | 2.41
87 | VSVNAQTLDGRTPLHLAAQRGHYG [R24G] | 3.1
88 | VSVNAQTLDGRTPLHLAAQRGHYN [R24N] | 2.98
89 | VSVNAQTLDGRTPLHLAAQRGHYT [R24T] | 2.99
90 | VSVNAQTLDGRTPLHLAAQRGHYK [R24K] | 3.11
91 | VSVNAQTLDGRTPLHLAAQRGHYW [R24W] | 2.48
92 | VSVNAQTLDGRTPLHLAAQRGHYI [R24I] | 2.05
93 | VSVNAQTLDGRTPLHLAAQRGHYM [R24M] | 2.87
94 | VSVNAQTLDGRTPLHLAAQRGHYL [R24L] | 2.13
